Data reported in the supplement of paper PMC9233669.
Variants at the floor of the assay were thinned out.

Experiments:
[1] = tested on: biotinyl-Leu-oxazolone; experiment: self-aminoacylation, catalytic enhancement (BLO) (fold over background); higher = more active; k-Seq, kA / k0A0; sequences stand for … in GGGAAUGGAUCCACAUCUACGAAUUC…UUCACUGCAGACUUGACGAAGCUG
Procedure, shortened: (§1)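 The uncatalyzed rate is the low-activity peak of a bimodal Gaussian fit, and catalytic enhancement is median kA divided by it. The kA values came from pseudo-first-order fits, with 1000 bootstraps, of per-sequence fraction reacted measured by streptavidin capture, triplicate qPCR and Illumina sequencing. Mutagenized RNA pools with a 21-nt variable region (0.43 μM) were reacted with each biotinyl-aminoacyl-oxazolone at 2–1250 μM in 50 μL HEPES/NaCl/KCl/MgCl2/CaCl2 buffer with 5% acetonitrile, pH 6.9–7.0, for 90 minutes at room temperature.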

[2] = tested on: biotinyl-Phe-oxazolone; experiment: self-aminoacylation, catalytic enhancement (BFO) (fold over background); higher = more active; k-Seq, kA / k0A0; sequences stand for … in GGGAAUGGAUCCACAUCUACGAAUUC…UUCACUGCAGACUUGACGAAGCUG
Procedure, shortened: as §1

[3] = tested on: biotinyl-Met-oxazolone; experiment: self-aminoacylation, catalytic enhancement (BMO) (fold over background); higher = more active; k-Seq, kA / k0A0; sequences stand for … in GGGAAUGGAUCCACAUCUACGAAUUC…UUCACUGCAGACUUGACGAAGCUG
Procedure, shortened: as §1

[4] = tested on: biotinyl-Ile-oxazolone; experiment: self-aminoacylation, catalytic enhancement (BIO) (fold over background); higher = more active; k-Seq, kA / k0A0; sequences stand for … in GGGAAUGGAUCCACAUCUACGAAUUC…UUCACUGCAGACUUGACGAAGCUG
Procedure, shortened: as §1

[5] = tested on: biotinyl-Trp-oxazolone; experiment: self-aminoacylation, catalytic enhancement (BWO) (fold over background); higher = more active; k-Seq, kA / k0A0; sequences stand for … in GGGAAUGGAUCCACAUCUACGAAUUC…UUCACUGCAGACUUGACGAAGCUG
Procedure, shortened: as §1

[6] = tested on: biotinyl-Val-oxazolone; experiment: self-aminoacylation, catalytic enhancement (BVO) (fold over background); higher = more active; k-Seq, kA / k0A0; sequences stand for … in GGGAAUGGAUCCACAUCUACGAAUUC…UUCACUGCAGACUUGACGAAGCUG
Procedure, shortened: as §1

| Sequence | self-aminoacylation [1] | self-aminoacylation [2] | self-aminoacylation [3] | self-aminoacylation [4] | self-aminoacylation [5] | self-aminoacylation [6] |
| --- | --- | --- | --- | --- | --- | --- |
| CCACACUUCAAGGAAUAGGUC [Fam1B.1 aminoacylation ribozyme variant] | 0.478 | 0.627 | 0.489 | 0.526 | 0.5 | 0.514 |
| CCACACUUCAAGGAAUUGGUC [Fam1B.1 aminoacylation ribozyme variant] | 1.03 | 0.734 | 0.755 | 0.901 | 0.823 | 0.726 |
| CCACACUUCAAGGACUCGGUC [Fam1B.1 aminoacylation ribozyme variant] | 1.23 | 1.05 | 1.03 | 1.02 | 1.13 | 1.24 |
| CCACACUUCAAGUAAUCCGUC [Fam1B.1 aminoacylation ribozyme variant] | 0.839 | 0.9 | 1.1 | 1.06 | 1.16 | 1.06 |
| CCACACUUCAAGUAAUCGGUA [Fam1B.1 aminoacylation ribozyme variant] | 1.17 | 0.884 | 1.09 | 1.01 | 0.708 | 0.929 |
| CCACACUUCAAGUAGUCGGUC [Fam1B.1 aminoacylation ribozyme variant] | 0.92 | 0.856 | 0.857 | 0.96 | 0.919 | 0.865 |
| CCACACUUCAAGUGAUCGGUC [Fam1B.1 aminoacylation ribozyme variant] | 0.951 | 1.72 | 1.1 | 1.04 | 1.24 | 1.06 |
| CCACACUUCAAUCAACCGGUC [Fam1B.1 aminoacylation ribozyme variant] | 1.06 | 0.923 | 0.665 | 0.862 | 1.22 | 1.02 |
| CCACACUUCAAUCAAUCGAUC [Fam1B.1 aminoacylation ribozyme variant] | 0.512 | 1.25 | 0.463 | 0.523 | 0.592 | 0.609 |
| CCACACUUCACGCAAUCAGUC [Fam1B.1 aminoacylation ribozyme variant] | 0.673 | 0.704 | 0.662 | 0.823 | 0.962 | 0.731 |
| CCACACUUCACGCAAUCUGUC [Fam1B.1 aminoacylation ribozyme variant] | 0.447 | 0.436 | 0.472 | 0.481 | 0.464 | 0.678 |
| CCACACUUCACGCCAUCGGUC [Fam1B.1 aminoacylation ribozyme variant] | 1.51 | 1.28 | 1.31 | 1.59 | 2.05 | 2.13 |
| CCACACUUCACGGAAUCGGUC [Fam1B.1 aminoacylation ribozyme variant] | 1.65 | 1.01 | 1.14 | 1.16 | 0.915 | 1.39 |
| CCACACUUCAGGCAACCGGUC [Fam1B.1 aminoacylation ribozyme variant] | 1.38 | 1.64 | 1.61 | 1.89 | 1.27 | 1.95 |
| CCACACUUCAGGCAAUCGGUU [Fam1B.1 aminoacylation ribozyme variant] | 2.13 | 6.44 | 2.24 | 1.68 | 2.37 | 1.98 |
| CCACACUUCAUCCAAUCGGUC [Fam1B.1 aminoacylation ribozyme variant] | 0.854 | 0.689 | 0.811 | 0.883 | 0.581 | 0.912 |
| CCACACUUCAUGCAACCGGUC [Fam1B.1 aminoacylation ribozyme variant] | 0.795 | 0.916 | 0.943 | 0.996 | 0.752 | 0.981 |
| CCACACUUCAUGCAAUCGGUA [Fam1B.1 aminoacylation ribozyme variant] | 0.811 | 0.533 | 0.769 | 0.681 | 0.458 | 0.733 |
| CCACACUUCAUGCAAUCGGUU [Fam1B.1 aminoacylation ribozyme variant] | 1.37 | 0.766 | 1.33 | 1.2 | 0.843 | 1.26 |
| CCACACUUCAUGGAAUCGGUC [Fam1B.1 aminoacylation ribozyme variant] | 0.946 | 0.928 | 0.836 | 0.858 | 0.598 | 1.1 |
| CCACACUUCCAGCAAUCGGAC [Fam1B.1 aminoacylation ribozyme variant] | 0.592 | 0.784 | 0.797 | 0.999 | 0.846 | 1.1 |
| CCACACUUCCAGCAAUCGGUC [Fam1B.1 aminoacylation ribozyme variant] | 0.9 | 1.03 | 0.882 | 1.14 | 0.872 | 1.25 |
| CCACACUUCCAGCAAUCGGUG [Fam1B.1 aminoacylation ribozyme variant] | 4.82 | 18.9 | 3.83 | 2.74 | 3.13 | 3.05 |
| CCACACUUCCAGCAAUCGUUC [Fam1B.1 aminoacylation ribozyme variant] | 0.64 | 1.22 | 0.642 | 1.09 | 0.75 | 1.05 |
| CCACACUUCCAGCAGUCGGUC [Fam1B.1 aminoacylation ribozyme variant] | 1.11 | 0.659 | 1.14 | 1.24 | 0.613 | 1.29 |
| CCACACUUCCAUCAAUCGGUC [Fam1B.1 aminoacylation ribozyme variant] | 0.593 | 0.715 | 0.561 | 0.683 | 0.586 | 0.732 |
